Reference: patent US20070134249A1 (GENITOPE, published 2007)
One block for each binder: values may come before it.

Key:
[1] = target: T1, PIN149 fully human Id protein (HV3-23 / KV4-1) (human); test: SPR (BIACORE 2000); mAb captured on anti-mouse surface, fully human Id protein as analyte, 25 C
T1 construct: Recombinant patient-derived idiotype immunoglobulin used as antigen; also called PIN149 Id protein; Immunogen (for 3C9, 6C9, 10H7, 15E1); not shown: human immunoglobulin heavy chain constant region, isotype G3 (HCG3); human immunoglobulin kappa light chain constant region (KC)
Method: (§1) Binding constants were also determined for three of the sequenced clones (3C9, 10H7, and 20H5), as well as for two additional clones (6C9 and 15E1). The association and disassociation rates were measured by surface plasmon resonance using a BIACORE 2000 machine.
(§2) In addition, based on ELISA results, PIN185 was used as a positive control Id protein for 10H7 and 15E1 and a negative control Id protein for 3C9 and 6C9 and PIN149 was used as a non-binding Id protein for 20H5. Each mAb was captured onto an anti-mouse surface and tested for binding to the fully human Id protein. Following the mAb capture phase of the assay for the (@2 ug/ml), the fully human Id proteins were all diluted to a starting concentration of 250 nM and tested in a three fold dilution series. Each concentration was tested in duplicate. The running buffer contained PBS plus 0.005% tween-20 and 0.1 mg/ml BSA as a carrier. Binding data were collected at 25° C. […] The other data sets all fit well to a single site interaction model.

[2] = target: T2, 522; test: ELISA
T2 construct: H3-23 L1-40; also called PIN522
Excerpt: (§3) Before specificity screening, all of the clonal immunogen-positive hybridoma supernatants were re-screened on the immunogen, a non-family member Id protein, and KLH, if animals were immunized with Id protein that has been conjugated KLH. As described above, this screen identifies HC-specific clones but not mAbs against the light chain constant region. Clones identified positive to the immunogen and KLH were […]. Those found positive to the immunogen but not to the non-family member Id protein or KLH were tittered on the immunogen. In addition to normalizing for different binding affinities and concentrations, each hybridoma supernatant was titered on the fully human form of the Id protein used as the immunogen(s) for the V regions. The titer or dilution resulting in an ELISA absorbance of 2.5 to 3 OD after 30 min. incubation time was then used. Hybridoma specificity was determined by screening against available Id proteins expressing the same HV and KV or LV as well as different HV, KV and LV. The final ELISA results are expressed as follows: 0 (<0.5 OD), 1 (0.5-1.0 OD), or 4 (1-4 OD). Positive hybridoma supernatants are categorized according to specificity: anti-Id, anti-constant region (HC, KC or LC), or V region (HV, KV, LV family or family member).
(§4) In general, the fully human Id protein or proteins containing the immunogen V regions were coated onto 96-well ELISA plates at 2.5-5 ug/mL in carbonate buffer pH 9.6 and incubated at 4° C. for up to 14 days. On the day of the ELISA, plates were brought to RT and blocked with Tris-Tween-20, pH 7.6 for 15-60 min. at RT. Following a NaCl and Triton X-100 wash, diluted hybridoma cell culture supernatants were incubated overnight at 4° C. Hybridoma supernatant dilutions ranged from 1:2 to 1:25 and were prepared in PBS with 5% BSA. Plates were washed and incubated with HRP-conjugated goat anti-mouse IgG-specific detecting antibody. A chromogenic substrate (TMB) was used to measure the amount of mouse antibody bound to each well. The reaction was stopped at or before 30 minutes with IN H2SO4 and plates were read immediately. Absorbency readings at 450 nm ranging between 0-4 OD and using Molecular Devices plate reader and SOFTMAX PRO software.

[3] = target: T3, 547; test: ELISA
T3 construct: also called PIN547
Excerpt: as §3, §4

[4] = target: T4, 352; test: ELISA
T4 construct: H3-23 K1-39; also called PIN352
Excerpt: as §3, §4

[5] = target: T5, 778; test: ELISA
T5 construct: H3-23 K3-11; also called PIN778
Excerpt: as §3, §4

[6] = target: T6, 210; test: ELISA
T6 construct: H3-23 K3-11; also called PIN210
Excerpt: as §3, §4

[7] = target: T7, 540; test: ELISA
T7 construct: H3-23 K3-20; also called PIN540
Excerpt: as §3, §4

[8] = target: T8, 232; test: ELISA
T8 construct: H3-23 K1-6; also called PIN232
Excerpt: as §3, §4

[9] = target: T9, 850; test: ELISA
T9 construct: H3-23 K2-30; also called PIN850
Excerpt: as §3, §4

[10] = target: T10, 203; test: ELISA
T10 construct: H3-23 L1-47; also called PIN203
Excerpt: as §3, §4

[11] = target: T11, 128; test: ELISA
T11 construct: H3-23 K1-27; also called PIN128
Excerpt: as §3, §4

[12] = target: T12, 834; test: ELISA
T12 construct: H3-23 K1-5; also called PIN834
Excerpt: as §3, §4

[13] = target: T13, 617; test: ELISA
T13 construct: H3-23, VL 1-44, LC printed K; also called PIN617
Excerpt: as §3, §4

[14] = target: T14, 213; test: ELISA
T14 construct: H3-23 L1-51; also called PIN213
Excerpt: as §3, §4

[15] = target: T15, 571; test: ELISA
T15 construct: H3-23 K3-11; also called PIN571
Excerpt: as §3, §4

[16] = target: T1, PIN149 fully human Id protein (HV3-23 / …); test: ELISA
Excerpt: as §3, §4

[17] = target: T16, 591; test: ELISA
T16 construct: H3-23 K4-1; also called PIN591
Excerpt: as §3, §4

[18] = target: T17, 576; test: ELISA
T17 construct: H3-23 L1-51; also called PIN576
Excerpt: as §3, §4

[19] = target: T18, 551; test: ELISA
T18 construct: H3-23 L1-40; also called PIN551
Excerpt: as §3, §4

[20] = target: T19, PIN185 fully human Id protein (human); test: SPR (BIACORE 2000); mAb captured on anti-mouse surface, fully human Id protein as analyte, 25 C
T19 construct: Patient-derived idiotype immunoglobulin used as control antigen in SPR
Method: as §1, §2

[21] = target: T20, 204; test: ELISA
T20 construct: H3-15 K4-1; also called PIN204
Excerpt: as §3, §4

[22] = target: T21, 192; test: ELISA
T21 construct: H5-51 K4-1; also called PIN192
Excerpt: as §3, §4

[23] = target: T22, 952; test: ELISA
T22 construct: H3-66 K4-1; also called PIN952
Excerpt: as §3, §4

[24] = target: T23, 659; test: ELISA
T23 construct: H3-21 K4-1; also called PIN659
Excerpt: as §3, §4

[25] = target: T24, 839; test: ELISA
T24 construct: H3-23 K4-1; also called PIN839
Excerpt: as §3, §4

[26] = target: T25, 844; test: ELISA
T25 construct: H3-7 K4-1; also called PIN844
Excerpt: as §3, §4

[27] = target: T26, 898; test: ELISA
T26 construct: H3-15 K4-1; also called PIN898
Excerpt: as §3, §4

[28] = target: T27, 1145; test: ELISA
T27 construct: H3-11 K4-1; also called PIN1145
Excerpt: as §3, §4

[29] = target: T28, 112; test: ELISA
T28 construct: H4-39 K4-1; also called PIN112
Excerpt: as §3, §4

[30] = target: T29, 763; test: ELISA
T29 construct: H4-59 K4-1; also called PIN763
Excerpt: as §3, §4

[31] = target: T30, 913; test: ELISA
T30 construct: fully human Id protein; also called PIN913
Excerpt: as §3, §4

[32] = target: T31, 1014; test: ELISA
T31 construct: H3-53 K4-1; also called PIN1014
Excerpt: as §3, §4

[33] = target: T32, 628; test: ELISA
T32 construct: fully human Id protein; also called PIN628
Excerpt: as §3, §4

[34] = target: T33, 792; test: ELISA
T33 construct: H1-3 K4-1; also called PIN792
Excerpt: as §3, §4

[35] = target: T34, 170; test: ELISA
T34 construct: H4-34 K4-1; also called PIN170
Excerpt: as §3, §4

[36] = target: T35, 950; test: ELISA
T35 construct: H4-59 K4-1; also called PIN950
Excerpt: as §3, §4

[37] = target: T36, 1023; test: ELISA
T36 construct: H4-4 K4-1; also called PIN1023
Excerpt: as §3, §4

[38] = target: T37, 179; test: ELISA
T37 construct: H3-11 K4-1; also called PIN179
Excerpt: as §3, §4

[39] = target: T38, 529; test: ELISA
T38 construct: H3-48 K4-1; also called PIN529
Excerpt: as §3, §4

[40] = target: T39, 791; test: ELISA
T39 construct: H3-30 K4-1; also called PIN791
Excerpt: as §3, §4

[41] = target: T40, 1088; test: ELISA
T40 construct: H2-5 K4-1; also called PIN1088
Excerpt: as §3, §4

[42] = target: T41, 1154; test: ELISA
T41 construct: H4-61 K4-1; also called PIN1154
Excerpt: as §3, §4

[43] = target: T42, 199; test: ELISA
T42 construct: H3-7 K4-1; also called PIN199
Excerpt: as §3, §4

[44] = target: T43, 987; test: ELISA
T43 construct: H3-23 K4-1; also called PIN987
Excerpt: as §3, §4

[45] = target: T44, 626; test: ELISA
T44 construct: H5-51 K4-1; also called PIN626
Excerpt: as §3, §4

[46] = target: T19, PIN185 fully human Id protein; test: ELISA
Excerpt: as §3, §4

T1 sequence (VH, as listed by the source, chain 1 of 2): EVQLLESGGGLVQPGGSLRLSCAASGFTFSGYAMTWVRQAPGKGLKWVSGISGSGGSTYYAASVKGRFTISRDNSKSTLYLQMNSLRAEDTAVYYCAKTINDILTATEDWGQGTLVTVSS
T1 sequence (VL, as listed by the source, chain 2 of 2): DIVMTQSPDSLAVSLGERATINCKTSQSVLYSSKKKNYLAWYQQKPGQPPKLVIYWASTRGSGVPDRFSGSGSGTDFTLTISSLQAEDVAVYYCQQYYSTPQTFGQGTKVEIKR
T30 sequence (heavy, as listed by the source): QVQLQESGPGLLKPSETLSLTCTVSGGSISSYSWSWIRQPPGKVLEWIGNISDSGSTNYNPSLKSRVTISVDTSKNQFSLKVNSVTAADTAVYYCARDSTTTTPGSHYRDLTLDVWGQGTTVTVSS
T32 sequence (VH, as listed by the source, chain 1 of 2): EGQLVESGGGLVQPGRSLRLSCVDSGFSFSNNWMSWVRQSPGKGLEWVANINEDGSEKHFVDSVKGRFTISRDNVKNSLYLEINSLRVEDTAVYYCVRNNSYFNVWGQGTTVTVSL
T32 sequence (VL, as listed by the source, chain 2 of 2): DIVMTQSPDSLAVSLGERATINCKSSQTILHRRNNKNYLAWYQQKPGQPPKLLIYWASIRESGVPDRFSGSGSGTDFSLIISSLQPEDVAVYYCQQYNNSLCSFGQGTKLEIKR

Kd [1]: 1.78 nM | koff [1]: 0.000134 s⁻¹ | kon [1]: 74900 M⁻¹ s⁻¹ | grade [2]: 4 | grade [3]: 4 | grade [4]: 4 | grade [5]: 4 | grade [6]: 4 | grade [7]: 4 | grade [8]: 4 | grade [9]: 4 | grade [10]: 4 | grade [11]: 4 | grade [12]: 4 | grade [13]: 4 | grade [14]: 1 | grade [15]: 4 | grade [16]: 4 | grade [17]: 4 | grade [18]: 4 | grade [19]: 4
B1: mAb clone 3C9 (antibody, V domains shown)
VH: EVQLQQSGPELEKPGASVKISCKASGYSFTAYNMNWVKQNNGKSLEWIGNIDPYHGGTNYNQKFKGKATLTVDKSSSTAYMQLKSLTSEDYAVYYCARGGGDWSWFAYWGQGTLVTVSA
VL: DIVMTQSHKFMSTSVGDRVSITCKASQDVNTAVAWYQQKPGQSPKVLIYWASNRHTGVPDRFTGSGSGTDYTLTISSMQAEDLALYYCHQHYSTPWTFGGGTKLEIER
notes: Mouse hybridoma mAb, fusions 13/14 (immunogen PIN149 chimera-KLH); also called anti-IGHV3-23 monoclonal 3C9

Kd [1]: 0.83 nM | koff [1]: 3.8e-05 s⁻¹ | kon [1]: 45400 M⁻¹ s⁻¹ | Kd [20]: 3 nM | koff [20]: 9.9e-05 s⁻¹ | kon [20]: 33200 M⁻¹ s⁻¹ | grade [21]: 4 | grade [22]: 4 | grade [23]: 4 | grade [24]: 4 | grade [25]: 4 | grade [26]: 4 | grade [27]: 4 | grade [28]: 4 | grade [29]: 4 | grade [30]: 4 | grade [31]: 4 | grade [32]: 4 | grade [33]: 4 | grade [34]: 4 | grade [35]: 4 | grade [36]: 4 | grade [37]: 4 | grade [38]: 4 | grade [39]: 4 | grade [40]: 4 | grade [41]: 4 | grade [42]: 4 | grade [16]: 4 | grade [43]: 4 | grade [44]: 4 | grade [17]: 4 | grade [45]: 4 | grade [46]: 4
B2: mAb clone 10H7 (antibody, V domains shown)
VH: EVQLVESGGGLVKPGGSLKLSCTASGFTFSSYAMSWVRQSPEKRLEWVAEISSGGIHTYYSDTVTGRFSISRDNAKNSTLYLEMNSLRSEDTAIYYCARETTGTWGQGTLVTVSA
VL: QIVLTQSPAIMSASPGEKVTMTCSVSSSITYMHWFRQKPGTSPKLWIYTTSNLASGVPARFSGSGSGTSYSLTISRMEAEDAATYYCQQRSRYPFTFGSGTKLEIKR
notes: Mouse hybridoma mAb, fusions 13/14 (immunogen PIN149 chimera-KLH)
